From the supplement of paper PMC10724198
± gives the standard deviation of the averaged measurements.

How the values were obtained:
[1] = test system: Saccharomyces cerevisiae; test: protein stability index of tFT-peptide fusion (C-terminal peptide) (PSI (0-1 scale)); higher = more stable (slower turnover); settings: genetic background: wild type; temperature: 30 C
[2] = test system: Saccharomyces cerevisiae; test: as above
Protocol: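 MPS profiling in S. cerevisiae of the tFT-X12 degron library: putative degron peptides plus stable controls, 12 aa, fused to the C-terminus of a sfGFP-mCherry timer. Cells are FACS-sorted into 8 mCherry/sfGFP bins and deep-sequenced. PSI runs from 0 (unstable) to 1 (stable). Backgrounds are wild type, das1Δ and doa10Δ at 30 °C, and wild type, das1Δ, cdc34-1 and cdc53-1 at 37 °C; 2-3 technical replicates each.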

[3] = genetic background: cdc34-1, temperature: 37 C
[4] = genetic background: cdc53-1, temperature: 37 C
[5] = genetic background: das1 deletion, temperature: 30 C
[6] = genetic background: das1 deletion, temperature: 37 C
[7] = genetic background: doa10 deletion, temperature: 30 C
[8] = genetic background: wild type, temperature: 30 C
[9] = genetic background: wild type, temperature: 37 C
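Further: PSI is a weighted mean of sequencing reads over stability bins, variants kept only with over 10 reads, mCherry proximal and sfGFP distal, peptide attached via GGGS linker.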

Sequence	protein stability index [1]	protein stability index [2, 3]	protein stability index [2, 4]	protein stability index [2, 5]	protein stability index [2, 6]	protein stability index [2, 7]	protein stability index [2, 8]	protein stability index [2, 9]
PRHVLWLRRLLF	0.334 ± 0.0067	0.68 ± 0.052	0.7289 ± 0.0067	0.622 ± 0.02	0.782 ± 0.029	0.2 ± 0.016	0.235 ± 0.024	0.5371 ± 0.0031
PRLRPQTVAFLS	0.2648 ± 0.0012	0.68 ± 0.038	0.732 ± 0.013	0.651 ± 0.011	0.721 ± 0.013	0.28 ± 0.02	0.313 ± 0.016	0.5179 ± 0.001
PVGLMKRFRLFI	0.455 ± 0.058	0.698 ± 0.088	0.727 ± 0.02	0.615 ± 0.031	0.716 ± 0.023	0.332 ± 0.012	0.364 ± 0.031	0.626 ± 0.018
PVPPSLLHRPPF	0.33 ± 0.014	0.679 ± 0.056	0.736 ± 0.045	0.682 ± 0.014	0.722 ± 0.018	0.677 ± 0.011	0.673 ± 0.021	0.727 ± 0.027
PWAHIRTVQTYV	0.437 ± 0.0069	0.673 ± 0.0069	0.716 ± 0.013	0.595 ± 0.011	0.7626 ± 0.0066	0.286 ± 0.0081	0.314 ± 0.033	0.461 ± 0.027
PWFSWLLYSFLF	0.501 ± 0.0028	0.546 ± 0.024	0.529 ± 0.031	0.526 ± 0.013	0.651 ± 0.029	0.535 ± 0.016	0.458 ± 0.026	0.551 ± 0.011
PYSLYASSSSPL	0.727 ± 0.024	0.696 ± 0.045	0.7492 ± 0.0029	0.68 ± 0.023	0.748 ± 0.019	0.6716 ± 0.0016	0.676 ± 0.017	0.716 ± 0.015
QCSVRLKEIQFS	0.346 ± 0.1	0.664 ± 0.032	0.726 ± 0.011	0.673 ± 0.03	0.72 ± 0.028	0.209 ± 0.023	0.276 ± 0.0056	0.481 ± 0.045
QERKILGRIKQA	0.265 ± 0.12	0.51 ± 0.078	0.6853 ± 0.00099	0.651 ± 0.05	0.7081 ± 0.0052	0.0853 ± 0.0029	0.0987 ± 0.035	0.161 ± 0.026
QITIYPIPLARF	0.79 ± 0.065	0.951 ± 0.015	0.937 ± 0.0099	0.807 ± 0.015	0.88 ± 0.0098	0.808 ± 0.027	0.867 ± 0.015	0.8924 ± 0.0076
QPSSFDMLGLLL	0.742 ± 0.049	0.6791 ± 0.0055	0.738 ± 0.019	0.654 ± 0.0092	0.752 ± 0.023	0.671 ± 0.053	0.663 ± 0.02	0.709 ± 0.0089
RFKEKVSIIHKQ	0.207 ± 0.054	0.6446 ± 0.0022	0.665 ± 0.061	0.693 ± 0.04	0.74 ± 0.017	0.11 ± 0.0081	0.106 ± 0.046	0.12487 ± 0.0001
RGYATTALHWVS	0.486 ± 0.019	0.668 ± 0.038	0.7695 ± 0.0075	0.6757 ± 0.002	0.7395 ± 0.0034	0.362 ± 0.0075	0.4 ± 0.022	0.596 ± 0.015
RHRGHVRLALLN	0.396 ± 0.0095	0.7 ± 0.079	0.845 ± 0.041	0.772 ± 0.013	0.791 ± 0.061	0.233 ± 0.025	0.26 ± 0.029	0.381 ± 0.017
RICCLFILLFCL	0.423 ± 0.057	0.439 ± 0.043	0.464 ± 0.024	0.396 ± 0.03	0.477 ± 0.0084	0.422 ± 0.0089	0.365 ± 0.028	0.412 ± 0.019
RIEGTLTARTAF	0.579 ± 0.18	0.736 ± 0.069	0.7639 ± 0.0033	0.635 ± 0.033	0.744 ± 0.013	0.65 ± 0.01	0.66 ± 0.0097	0.709 ± 0.00092
RITGCWKTYKMQ	0.308 ± 0.055	0.6341 ± 0.00082	0.721 ± 0.0019	0.615 ± 0.0094	0.758 ± 0.055	0.14145 ± 6.9e-05	0.164 ± 0.026	0.342 ± 0.073
RKNIKISKAGIG	0.279 ± 0.1	0.283 ± 0.0034	0.394 ± 0.0056	0.343 ± 0.012	0.377 ± 0.012	0.31 ± 0.0041	0.287 ± 0.021	0.332 ± 0.0074
RKRTILVIIVVK	0.338 ± 0.061	0.181 ± 0.031	0.33 ± 0.042	0.234 ± 0.045	0.461 ± 0.05	0.186 ± 0.011	0.217 ± 0.046	0.395 ± 0.052
RKVWSLCWFVHL	0.116 ± 0.0023	0.49 ± 0.071	0.617 ± 0.012	0.512 ± 0.012	0.65 ± 0.008	0.0695 ± 0.0078	0.0716 ± 0.015	0.0795 ± 0.0077
